Experiments:
MrUGT78W1 = system: T1, MrUGT78W1; assay: UDP-Glo glycosyltransferase assay, luminescence; format: biochemical, Morella rubra; conditions: 650 μM UDP-Gal, Tris-HCl 100 mM pH 8.5, 30°C
T1 construct: gene UGT78W1; full length, 469 residues (ORF 1410 bp), pET-32a(+) in E. coli BL21(DE3)pLysS, HisTALON purified, tag cleavage not mentioned; gene on chromosome 7
Excerpt: UDP-Glo glycosyltransferase assay, luminescence on MrUGT78W1

purified protein = substrate: O=c1c(O)c(-c2cc(O)c(O)c(O)c2)oc2cc(O)cc(O)c12; assay: purified protein; conditions: 650 μM UDP-Rha, Tris-HCl 100 mM pH 7.5, 35°C
[1] = substrate: O=c1c(O)c(-c2ccc(O)c(O)c2)oc2cc(O)cc(O)c12; assay: UDP-Glo glycosyltransferase assay, luminescence; format: biochemical, Morella rubra; conditions: 650 μM UDP-Rha, Tris-HCl 100 mM pH 7.5, 35°C
Excerpt: (§1) UDP-Glo glycosyltransferase assay, luminescence on MrUGT78R2

[2] = substrate: O=c1c(O)c(-c2ccc(O)cc2)oc2cc(O)cc(O)c12; assay: UDP-Glo glycosyltransferase assay, luminescence; format: biochemical, Morella rubra; conditions: 650 μM UDP-Rha, Tris-HCl 100 mM pH 7.5, 35°C
Excerpt: as §1

O=c1c(O)c(-c2ccc(O)c(O)c2)oc2cc(O)cc(O)c12 [Q, Quercetin]
Km (MrUGT78W1): 93.5 ± 2.69 µM

O=c1c(O)c(-c2ccc(O)cc2)oc2cc(O)cc(O)c12 [K, Kaempferol]
Km (MrUGT78W1): 50 ± 4.63 µM

O=c1c(O)c(-c2cc(O)c(O)c(O)c2)oc2cc(O)cc(O)c12 [M, Myricetin]
Km (MrUGT78W1): 13.7 ± 0.92 µM

B1: MrUGT78R2 (Morella rubra) (protein)
chain: MTQSSQDQHVAVLAFPLGCHPWPLLNLACKLACAAPNVRFSFFNTPKSNSKLFSTSQAEPPQNLKAYDVADGVPEGHVFTPGNPVEELELFLNAAPESFRNGMDMAVAETGREISCLLTDAFLVFASEMALDMHAKWVPFWVPAPHSLSAHMYSDLIYETYTNVCGGGEDGINTSDGDNYGTGTLGGIKPIDKTLDVIPGLSIMRFRDLPQQLLLGDFNSSLFSSALYRIGAVLPQASAVIMNSFQELNPATLTDDLKSKFQNLLYVGFLTLTLPPPPPPPSHSDATGCLPWLDDQKPTSVAYISFGTVSAVPPHEFVALAEALEASHVPFLWSLRDNFKEILPTGFLQRTRTQGKIVPWAPQAHVLAHKAVGVYVTHCGYNSVFESVVGEVPMICRPILGDNMFNGRMVEDVWGIGVGVEGGVFTKNGMLKSLEVVLGEEHGKRMREKIRDIKDLVVKAAGPTGIASKDFNTLVEVISK
notes: full length, 480 residues (ORF 1443 bp), pET-32a(+) in E. coli BL21(DE3)pLysS, HisTALON purified, tag cleavage not mentioned
Km (purified protein): 66.78 ± 3.56 µM | kcat/Km (purified protein): 34700 M⁻¹ s⁻¹ | Km [1]: 61.81 ± 8.74 µM | kcat/Km [1]: 45900 ± 4500 M⁻¹ s⁻¹ | Km [2]: 58.11 ± 5.52 µM | kcat/Km [2]: 37800 ± 2500 M⁻¹ s⁻¹

Source: paper PMC9437722, “Identification of UDP-rhamnosyltransferases and UDP-galactosyltransferase involved in flavonol glycosylation in Morella rubra” (Horticulture Research, 2022)
